{"source": "paper PMC3929086", "about": "“Targeted manipulation of the sortilin–progranulin axis rescues progranulin haploinsufficiency” (Human Molecular Genetics, 2013)", "key": {"[1]": {"tested_on": "neutrophil elastase", "assay": "Neutrophil elastase digestion of synthetic PGRN peptide, MALDI-MS", "type": "in vitro ADME", "procedure": "An enzymatic reaction was set up with 7 μg of custom-synthesized PGRN(584–593) peptide (Mayo peptide synthesis core) and 20 μg of NE in a 25 μl reaction at 37°C. Every 10 min, 4 μl of the mixture was collected and diluted 10 times in a solvent mixture (50% acetonitrile:50% water:0.1% acetic acid) until 1 h had passed. For MALDI-MS analysis, 1 μl of the diluted reaction mixture was dried on a MS gold chip and then layered with a concentrated sinipinic acid matrix on top for crystallization. Afterwards, the samples were analyzed by the Bio-Rad MALDI-MS system."}, "[2]": {"tested_on": "PGRN-SORT1 interaction", "assay": "PGRN-SORT1 co-immunoprecipitation", "type": "biochemical, human", "details": "HEK293 lysate with Flag-SORT1, 100 nM rPGRN, peptide at 10 M (sic; method 20 μM), densitometry", "procedure": "HEK293T cells were transfected empty vector or pCMV-SORT1-Flag vector for 48 h. Then, cells were lysed by using Co-IP buffer. Pre-incubation was performed with 300 μg of lysate protein mixed with 20 μM NTS, human PGRN(588–593) peptide or mouse PGRN(584–589) peptide for 1 h. Then, rPGRN (100 nM) was added into the protein G beads pre-cleared supernatant and mixed for 30 min. Next, anti-Flag M2 agarose (Sigma) was added and mixed for another 4 h. The agarose was collected by centrifugation at 1000 g for 3 min and washed with Co-IP buffer six times. Captured protein was eluted from the beads using loading buffer and analyzed by western blot."}, "[3]": {"tested_on": "SORT1-mediated PGRN endocytosis", "assay": "Quantitative DyL-rPGRN endocytosis assay in COS-1^SORT1 cells", "type": "cell-based, human", "details": "1 h; for inhibition of full-length PGRN endocytosis: COS-1^SORT1, ligand 10 μM (Fig. 4 legend), added simultaneously with DyL-rPGRN, vs vehicle", "procedure": "COS-1 cells seeded on a 96-well black plate 1 day before were transfected with pCMV-SORT1 vector. After 24 h, cells were treated with fluorescence-tagged rPGRN (DyL-rPGRN) pre-labeled by DyLight™ 594 antibody labeling kit (Thermo Scientific). The DyL-rPGRN was diluted in OptiMEM to tested concentrations and incubated with the cells for 1 h for endocytosis. The cells were then washed with cold PBS and then fixed by 4% paraformaldehyde. After washing twice, each well was filled with PBS prior scanning. The total PGRN fluorescent signal from the cells was obtained by a plate reader with 593/618 nm (Ex/Em) settings. The endocytosis signal was normalized by the total nuclei signal obtained by staining with a Hoechst 33342 dye. Baseline endocytosis signal was defined as a signal from medium-only-treated cells, whereas the 100% endocytosis level was set as the signal obtained from cells treated with 50 nM DyL-rPGRN. For testing SORT1 ligands, DyL-rPGRN and the peptide were added simultaneously to the cells. For testing of PGRN binders, the binder was pre-incubated with DyL-rPGRN for 1 h before adding to the cells. For qualitative analysis, images from each well were captured by BD Pathway 855 system using a 20× magnification setting."}, "[4]": {"tested_on": "SORT1–PGRN interaction", "assay": "MSD-based SORT1–PGRN interaction assay", "type": "biochemical, human", "details": "200 nM tagged rPGRN, SORT1-Flag captured on MSD plate", "procedure": "M17 cells were transfected with pCMV-SORT1-Flag for 48 h. Then, the cell lysate was harvested by the same method used in the co-immunoprecipitation assay. Expression of SORT1-Flag protein was confirmed by western blot. MSD plate was first coated with the Flag M2 antibody (Sigma). Following an overnight incubation at 4°C, the plate was blocked for 2 h and then washed prior to addition of 5 µg/well of lysate protein containing SORT1-Flag protein. After overnight incubation at 4°C, it was then washed and added with 200 nM of either N-6His- or C-6His-tagged rPGRN pre-incubated with either vehicle, 20 µM or 200 µM of BVFP, for 30 min at room temperature. Then plate was then incubated for 2 h, washed and incubated with a mixture of PCDGF antibody and a SULFO-TAG-labeled anti-rabbit IgG antibody for 2 h. After final wash, the plate was read by the MSD Sector Imager 2400."}, "[5]": {"tested_on": "SORT1", "assay": "PGRN endocytosis in M17 cells overexpressing SORT1", "type": "cell-based", "details": "for endocytosis of rPGRN: M17^SORT1 cells, rPGRN 500 ng/ml, 60 min, immunofluorescence", "procedure": "M17 cells seeded in 12-well culture plates (western blot) or on glass coverslips in 24-well culture plate (immunofluorescence) were transfected with pEGFP-N1 (Clontech) or pCMV-SORT1 (OriGene) vectors. Next day, the cells were changed into serum-free medium 1 h before addition of rPGRN (500 ng/ml) and treated for 60 min. The cells were then put on ice and washed with cold PBS. For western blot, cells were lysed in cold M-Per protein extraction buffer followed by standard procedures as mentioned. For immunofluorescence analyses, cells were fixed in 4% paraformaldehyde solution followed by PBS washes. The cells were then incubated in blocking buffer (PBS, 5% goat serum, 0.1% saponin) for 1 h at room temperature followed by incubation in primary antibody overnight at 4°C. The cells were incubated with secondary antibodies (1:1000) for 1 h at room temperature. The coverslips were then mounted onto slides and waited overnight before analysis. Image analysis was performed by Zeiss LSM 510 META confocal microscope using 60× magnification setting."}, "[6]": {"tested_on": "SORT1", "assay": "SORT1 protein level in M17 cells (western blot)", "type": "cell-based", "details": "M17, rPGRN at 50 ng/ml, 1, 2 and 4 hours", "procedure": "PGRN, SORT1, GFP, GAPDH and β-actin proteins were analyzed using 10% Tris–glycine polyacrylamide gel by SDS–PAGE. After electrophoresis, proteins on gel were transblotted to PVDF membranes followed by standard immunoblotting protocols."}, "[7]": {"tested_on": "PGRN endocytosis in SORT1^KO-hESCs", "assay": "DyL-rPGRN endocytosis in SORT1^KO-hESCs", "type": "cell-based, human", "details": "SORT1^KO-hESC compared with WT-hESC", "from_the_text": "To determine whether BVFP, when bound to PGRN, disrupts full-length PGRN and SORT1 binding, we devised a SORT1-dependent rPGRN precipitation assay utilizing the Meso-Scale Discovery (MSD) system (Supplementary Material, Fig. S4A and B). […] To include a higher-affinity PGRN588–593 motif binder as a positive control, an antibody targeting the motif, PGRN-CT antibody, was made for validating the approach (Fig. 5F). […] First, we found SORT1 was abundantly expressed in the wild-type hESCs (Fig. 5H). Similar to the results from COS-1^SORT1 cells, BVFP and PGRN-CT antibody inhibited endocytosis of DyL-rPGRN by 22 and 39%, respectively, under the same experimental conditions in wild-type hESCs (Fig. 5I left).\nCOS-1 cells seeded on a 96-well black plate 1 day before were transfected with pCMV-SORT1 vector. After 24 h, cells were treated with fluorescence-tagged rPGRN (DyL-rPGRN) pre-labeled by DyLight™ 594 antibody labeling kit (Thermo Scientific). The DyL-rPGRN was diluted in OptiMEM to tested concentrations and incubated with the cells for 1 h for endocytosis. The cells were then washed with cold PBS and then fixed by 4% paraformaldehyde. After washing twice, each well was filled with PBS prior scanning. The total PGRN fluorescent signal from the cells was obtained by a plate reader with 593/618 nm (Ex/Em) settings. […]"}}, "note": "“Also recorded” adds a separate entry of the source.", "data": [{"molecule": "PGRN574–593 peptide: synthetic PGRN574–593 peptide, molecular weight 2430 Da", "values": [{"measurement": "cleavage by neutrophil elastase", "setting": "[1]; 7 μg peptide, 20 μg NE, 25 μl, 37°C, sampled every 10 min to 1 h", "result": "enzymatically cleaved by recombinant elastase (EL) in a time-dependent manner"}, {"measurement": "cleavage site / residues removed by elastase", "setting": "[1]; product 1806 Da from 2430 Da", "result": "between residues Ala-588 and Leu-589; also recorded: last five residues were removed by EL"}]}, {"molecule": "ALRQLL [human PGRN588–593, custom-synthesized C-terminal peptide of human PGRN, -ALRQLL]", "values": [{"measurement": "inhibition of PGRN–SORT1 co-immunoprecipitation", "setting": "[2]", "result": "significantly reduced the amount of rPGRN"}, {"measurement": "inhibition of full-length PGRN endocytosis", "setting": "[3]", "result": 93, "unit": "%"}]}, {"molecule": "ELYENKPRRPYIL [NTS, neurotensin, reference compound]", "values": [{"measurement": "inhibition of PGRN–SORT1 co-immunoprecipitation", "setting": "[2]", "result": "significantly reduced the amount of rPGRN"}, {"measurement": "inhibition of full-length PGRN endocytosis", "setting": "[3]", "result": 90, "unit": "%"}]}, {"molecule": "N-rP: human recombinant PGRN with 6-histidine tag on the amino-terminus", "values": [{"measurement": "rPGRN binding to immobilized SORT1", "setting": "[4]", "result": "specific binding signal"}, {"measurement": "endocytosis of tagged rPGRN", "setting": "[5]; M17 cells expressing titrated amounts of SORT1, western blot", "result": "dependently endocytosed"}]}, {"molecule": "VPRPLL [mouse Pgrn584–589, mouse ortholog peptide of PGRN588–593, -VPRPLL]", "values": [{"measurement": "inhibition of PGRN–SORT1 co-immunoprecipitation", "setting": "[2]", "result": "significantly reduced the amount of rPGRN"}, {"measurement": "inhibition of full-length PGRN endocytosis", "setting": "[3]", "result": 73, "unit": "%"}]}, {"molecule": "rPGRN: wild-type human recombinant PGRN protein from stable HEK293 cells (protein, left off: His6, N-terminal, state not stated) TRCPDGQFCPVACCLDPGGASYSCCRPLLDKWPTTLSRHLGGPCQVDAHCSAGHSCIFTVSGTSSCCPFPEAVACGDGHHCCPRGFHCSADGRSCFQRSGNNSVGAIQCPDSQFECPDFSTCCVMVDGSWGCCPMPQASCCEDRVHCCPHGAFCDLVHTRCITPTGTHPLAKKLPAQRTNRAVALSSSVMCPDARSRCPDGSTCCELPSGKYGCCPMPNATCCSDHLHCCPQDTVCDLIQSKCLSKENATTDLLTKLPAHTVGDVKCDMEVSCPDGYTCCRLQSGAWGCCPFTQAVCCEDHIHCCPAGFTCDTQKGTCEQGPHQVPWMEKAPAHLSLPDPQALKRDVPCDNVSSCPSSDTCCQLTSGEWGCCPIPEAVCCSDHQHCCPQGYTCVAEGQCQRGSEIVAGLEKMPARRASLSHPRDIGCDQHTSCPVGQTCCPSLGGSWACCQLPHAVCCEDRQHCCPAGYTCNVKARSCEKEVVSAQPATFLARSPHVGVKDVECGEGHFCHDNQTCCRDNRQGWACCPYRQGVCCADRRHCCPAGFRCAARGTKCLRREAPRWDAPLRDPALRQLL", "values": [{"measurement": "SORT1 level after rPGRN treatment", "setting": "[6]", "result": "No significant changes in SORT1"}, {"measurement": "endocytosis of rPGRN", "setting": "[5]", "result": "significantly endocytosed"}, {"measurement": "subcellular localization after endocytosis", "setting": "[5]; M17 cells overexpressing SORT1", "result": "endolysosomal localization"}]}, {"molecule": "rPGRN1-588: recombinant carboxyl-terminal-truncated PGRN 1–588 (protein, left off: His6, N-terminal, state not stated) TRCPDGQFCPVACCLDPGGASYSCCRPLLDKWPTTLSRHLGGPCQVDAHCSAGHSCIFTVSGTSSCCPFPEAVACGDGHHCCPRGFHCSADGRSCFQRSGNNSVGAIQCPDSQFECPDFSTCCVMVDGSWGCCPMPQASCCEDRVHCCPHGAFCDLVHTRCITPTGTHPLAKKLPAQRTNRAVALSSSVMCPDARSRCPDGSTCCELPSGKYGCCPMPNATCCSDHLHCCPQDTVCDLIQSKCLSKENATTDLLTKLPAHTVGDVKCDMEVSCPDGYTCCRLQSGAWGCCPFTQAVCCEDHIHCCPAGFTCDTQKGTCEQGPHQVPWMEKAPAHLSLPDPQALKRDVPCDNVSSCPSSDTCCQLTSGEWGCCPIPEAVCCSDHQHCCPQGYTCVAEGQCQRGSEIVAGLEKMPARRASLSHPRDIGCDQHTSCPVGQTCCPSLGGSWACCQLPHAVCCEDRQHCCPAGYTCNVKARSCEKEVVSAQPATFLARSPHVGVKDVECGEGHFCHDNQTCCRDNRQGWACCPYRQGVCCADRRHCCPAGFRCAARGTKCLRREAPRWDAPLRDPA", "values": [{"measurement": "endocytosis of rPGRN", "setting": "[5]", "result": "failed to be endocytosed"}]}, {"molecule": "DyL-rPGRN: DyLight™-594 fluorescence-labeled rPGRN (conjugate, UniProt P28799 1-593, looked up, full-length DyLight 594 label, DyLight™-594 fluorescence-labeled rPGRN) MWTLVSWVALTAGLVAGTRCPDGQFCPVACCLDPGGASYSCCRPLLDKWPTTLSRHLGGPCQVDAHCSAGHSCIFTVSGTSSCCPFPEAVACGDGHHCCPRGFHCSADGRSCFQRSGNNSVGAIQCPDSQFECPDFSTCCVMVDGSWGCCPMPQASCCEDRVHCCPHGAFCDLVHTRCITPTGTHPLAKKLPAQRTNRAVALSSSVMCPDARSRCPDGSTCCELPSGKYGCCPMPNATCCSDHLHCCPQDTVCDLIQSKCLSKENATTDLLTKLPAHTVGDVKCDMEVSCPDGYTCCRLQSGAWGCCPFTQAVCCEDHIHCCPAGFTCDTQKGTCEQGPHQVPWMEKAPAHLSLPDPQALKRDVPCDNVSSCPSSDTCCQLTSGEWGCCPIPEAVCCSDHQHCCPQGYTCVAEGQCQRGSEIVAGLEKMPARRASLSHPRDIGCDQHTSCPVGQTCCPSLGGSWACCQLPHAVCCEDRQHCCPAGYTCNVKARSCEKEVVSAQPATFLARSPHVGVKDVECGEGHFCHDNQTCCRDNRQGWACCPYRQGVCCADRRHCCPAGFRCAARGTKCLRREAPRWDAPLRDPALRQLL", "values": [{"measurement": "DyL-rPGRN endocytosis signal", "setting": "[7]", "result": "significantly lower signal compared with the WT-hESCs"}, {"measurement": "DyL-rPGRN endocytosis response", "setting": "[3]; COS-1^SORT1, DyL-rPGRN 0 to 50 nM, 593/618 nm", "result": "linear, non-saturated endocytosis response"}]}]}
